The text below walks through data of US20260285931 (published 2026).

To fix the notation:
T1: CD127-Fc (IL-7Ralpha Fc) (human, UniProt P16871)
T1 chain: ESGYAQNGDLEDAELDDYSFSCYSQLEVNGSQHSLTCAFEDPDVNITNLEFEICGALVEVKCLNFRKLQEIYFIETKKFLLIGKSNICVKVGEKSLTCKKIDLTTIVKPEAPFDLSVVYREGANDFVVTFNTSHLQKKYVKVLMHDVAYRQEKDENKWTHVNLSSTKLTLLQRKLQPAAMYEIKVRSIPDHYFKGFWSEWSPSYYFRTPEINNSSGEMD

B1: IL-7_s7 (designed binder)
chain: KKLNDLCFLKRLLQEIKTCWNKIVHTECSHGDLLECADDRKQYESVLMVSIDQLLDSMKEIGSNCLNNEFNFFKRHICDANKECMFLFRAARKLRQFLKMQSTGDFDLHLLKVSEGTTILLQSTGCS
B2: IL-7_s11 (designed binder)
chain: KKLNDLCFLKRLLQEIKTCWNKKVGSKCSKHPEAKRMPCAEDYLKQYESVLMVSIDQLLDSMKEIGSNCLNNEFNFFKRHICDANKECMFLFRAARKLRQFLKMQSTGDFDLHLLKVSEGTTILLQSTGCS
B3: IL-7_s13a (designed binder)
chain: KKLNDLCFLKRLLQEIKTCWNKICSKADDKETCKQYESVLMVSIDQLLDSMKEIGSNCLNNEFNFFKRHICDANKECMFLFRAARKLRQFLKMQSTGDFDLHLLKVSEGTTILLQSTGCS
B4: IL-7_s4 (designed binder)
chain: KKLNDLCFLKRLLQEIKTCWNKIAFTECSQAADKAACLLPKLDEYESVLMVSIDQLLDSMKEIGSNCLNNEFNFFKRHICDANKECMFLFRAARKLRQFLKMQSTGDFDLHLLKVSEGTTILLQSTGCS
B5: IL-7_s12 (designed binder)
chain: KKLNDLCFLKRLLQEIKTCWNKLHEKTPVSDRVTKQYESVLMVSIDQLLDSMKEIGSNCLNNEFNFFKRHICDANKECMFLFRAARKLRQFLKMQSTGDFDLHLLKVSEGTTILLQSTGCS
B6: IL-7_s4a (designed binder)
chain: KKLNDLCFLKRLLQEIKTCWNKRYKAAFTECSQAADKAACLLPKLDELKQYESVLMVSIDQLLDSMKEIGSNCLNNEFNFFKRHICDANKECMFLFRAARKLRQFLKMQSTGDFDLHLLKVSEGTTILLQSTGCS
B7: IL-7_s10 (designed binder)
chain: KKLNDLCFLKRLLQEIKTCWNKYTKKVPQVSTPTLVQYESVLMVSIDQLLDSMKEIGSNCLNNEFNFFKRHICDANKECMFLFRAARKLRQFLKMQSTGDFDLHLLKVSEGTTILLQSTGCS
B8: IL-7_s10a (designed binder)
chain: KKLNDLCFLKRLLQEIKTCWNKYTKKVPQVSTPTLKQYESVLMVSIDQLLDSMKEIGSNCLNNEFNFFKRHICDANKECMFLFRAARKLRQFLKMQSTGDFDLHLLKVSEGTTILLQSTGCS
B9: IL-7_s13 (designed binder)
chain: KKLNDLCFLKRLLQEIKTCWNKILVEKCSKADDKETCFAEDGKQYESVLMVSIDQLLDSMKEIGSNCLNNEFNFFKRHICDANKECMFLFRAARKLRQFLKMQSTGDFDLHLLKVSEGTTILLQSTGCS
B10: IL-7_s2 (designed binder)
chain: KKLNDLCFLKRLLQEIKTCWNKICSAKQEPERNECFKQYESVLMVSIDQLLDSMKEIGSNCLNNEFNFFKRHICDANKECMFLFRAARKLRQFLKMQSTGDFDLHLLKVSEGTTILLQSTGCS
B11: IL-7_s8 (designed binder)
chain: KKLNDLCFLKRLLQEIKTCWNKECSEKPLLEKSHCIKQYESVLMVSIDQLLDSMKEIGSNCLNNEFNFFKRHICDANKECMFLFRAARKLRQFLKMQSTGDFDLHLLKVSEGTTILLQSTGCS
B12: IL-7 wt-degly (protein)
chain: DCDIEGKDGKQYESVLMVSIDQLLDSMKEIGSNCLNNEFNFFKRHICDANKEGMFLFRAARKLRQFLKMQSTGDFDLHLLKVSEGTTILLQCTGQVKGRKPAALGEAQPTKSLEEQKSLKEQKKLNDLCFLKRLLQEIKTCWNKILMGTKEH
B13: IL-7_s5 (designed binder)
chain: KKLNDLCFLKRLLQEIKTCWNKILQKFGERAAKQYESVLMVSIDQLLDSMKEIGSNCLNNEFNFFKRHICDANKECMFLFRAARKLRQFLKMQSTGDFDLHLLKVSEGTTILLQSTGCS
B14: IL-7_s1 (designed binder)
chain: KKLNDLCFLKRLLQEIKTCWNKIFAQYLQQSPFEDHKQYESVLMVSIDQLLDSMKEIGSNCLNNEFNFFKRHICDANKECMFLFRAARKLRQFLKMQSTGDFDLHLLKVSEGTTILLQSTGCS
B15: IL-7_s6 (designed binder)
chain: KKLNDLCFLKRLLQEIKTCWNKILSQRFPKAEFAEVKQYESVLMVSIDQLLDSMKEIGSNCLNNEFNFFKRHICDANKECMFLFRAARKLRQFLKMQSTGDFDLHLLKVSEGTTILLQSTGCS
B16: IL-7_s9 (designed binder)
chain: KKLNDLCFLKRLLQEIKTCWNKICSAAADPHECYKQYESVLMVSIDQLLDSMKEIGSNCLNNEFNFFKRHICDANKECMFLFRAARKLRQFLKMQSTGDFDLHLLKVSEGTTILLQSTGCS

This test has as its target T1, CD127-Fc (IL-7Ralpha Fc). Kind of test: BLI.
One may read the Kd as the free concentration of one partner at which half of the binding sites on the other are occupied at equilibrium, for simple one-to-one binding. The molecule B1 returned a Kd of 56.7 nM.
In turn, B2 returned a Kd of 39.3 nM.
With B3, the affinity, expressed as Kd, was 3.6 nM.
As for B4, the figure is 33.6 nM; as for B5, 25.9 nM.
As for B6, binding was put at a Kd of 14.5 nM.
B7 displayed a Kd of 35.3 nM.
Take B8: binding was characterised by a dissociation constant (Kd) of 34.6 nM.
As for B9, the figure is 31.9 nM.
As for B10, the figure is 10.6 nM; as for B11, 33.4 nM.
On to B12, for which the Kd turned out to be 64.7 nM.
The molecule B13 registered a Kd of 7.57 nM.
As for B14, the figure is 1.89 nM; as for B15, 17.1 nM.
Turning to B16, binding was put at a Kd of 49.3 nM.
